Measurements as given in patent US20220227830A1, “QD DOSING OF GIP RECEPTOR AGONIST PEPTIDE COMPOUNDS AND USES THEREOF” (Takeda Pharmaceutical Company Limited, priority 2020, published 2022).
Numbering of substitutions follows the chain as printed. Starred links: 1 amine or outer side, 2 acyl side, 3 side chain; linkers in the order of their positions; H or OH if unused. Non-standard residues stand in square brackets, D forms with d. Groups on a side chain read outwards from the residue. No end group written: not given here. *: point of attachment. G2E3 = linker of 2 Gly and 3 Glu (read GGEEE); C15 diacid = O=C(O)CCCCCCCCCCCCCC(=O)*; γGlu = O=C(O)[C@H](CCC(=O)[*:2])N[*:1]; NMeY = CN[C@@H](Cc1ccc(O)cc1)C(=O)O; AEEA = NCCOCCOCC(=O)O; Aib = CC(C)(N)C(=O)O

T1: full-length human GIPR with an N-terminal FLAG tag (human, UniProt P48546 22-466)
T1 sequence (looked up): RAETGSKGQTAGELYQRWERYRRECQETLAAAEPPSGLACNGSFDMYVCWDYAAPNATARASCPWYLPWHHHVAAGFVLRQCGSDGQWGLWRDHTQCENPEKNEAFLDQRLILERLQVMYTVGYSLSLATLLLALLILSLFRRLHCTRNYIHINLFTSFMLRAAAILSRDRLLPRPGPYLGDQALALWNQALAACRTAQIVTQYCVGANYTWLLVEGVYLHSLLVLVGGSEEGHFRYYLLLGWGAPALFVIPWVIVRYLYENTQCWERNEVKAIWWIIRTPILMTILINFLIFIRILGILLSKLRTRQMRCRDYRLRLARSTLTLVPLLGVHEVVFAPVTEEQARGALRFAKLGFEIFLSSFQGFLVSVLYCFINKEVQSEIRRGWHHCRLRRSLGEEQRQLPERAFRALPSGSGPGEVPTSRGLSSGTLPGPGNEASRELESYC

T2: full-length human GIPR with an N-terminal FLAG tag, overexpressed on HEK-293T cells (human, UniProt P48546 22-466)
T2 sequence (looked up): T1 sequence (looked up)

B1: Compound 43 (peptide)
peptide: Y[Aib]EGTFISDYSIALDR[Aib]AQ[Aib]NFVNWLLAQK([AEEA-γGlu-γGlu-γGlu-C15 diacid])
modifications: not fully specified (residue 1, N-terminus); also: Me-Tyr methyl position not given here
B2: Compound 41 (peptide)
peptide: Y[Aib]EGTFISDYSIALDR[Aib]AQ[Aib]NFVNWLLAQK([G2E3-C15 diacid])
modifications: not fully specified (residue 1, N-terminus); also: Me-Tyr methyl position not given here
B3: Compound 164 (peptide)
peptide: YXEGTFISDYSIALDRXAQXNFVNWLLAQSPSSGAPPPS
modifications: N-terminal Me (Me-Tyr1); Aib at 2, 20; Km = Lys(R) at 17, linker printed GS (read as G5 = GGGGG), lipid C15DA (C15 diacid); C-terminal NH2
B4: Compound 167 (peptide)
peptide: B3 peptide with N21D
modifications: N-terminal Me (Me-Tyr1); Aib at 2, 20; Km = Lys(R) at 17, linker printed GS (read as G5 = GGGGG), lipid C15DA (C15 diacid); C-terminal NH2
B5: Compound 166 (peptide)
peptide: B3 peptide with N21D
modifications: N-terminal Me (Me-Tyr1); Aib at 2, 20; Km = Lys(R) at 17, linker printed GS (read as G5 = GGGGG), lipid C15DA (C15 diacid); C-terminal OH
B6: Compound 165 (peptide)
peptide: B3 peptide with N21D, S30R
modifications: N-terminal Me (Me-Tyr1); Aib at 2, 20; Km = Lys(R) at 17, linker printed GS (read as G5 = GGGGG), lipid C15DA (C15 diacid); C-terminal OH
B7: Compound 159 (peptide)
peptide: YXEGTFISDYSIAXDRXAQXDFVNWLLAQSPG
modifications: N-terminal Me (Me-Tyr1); Aib at 2, 17, 20; Km = Lys(R) at 14, linker printed GS (read as G5 = GGGGG), lipid C15DA (C15 diacid); C-terminal OH
B8: Compound 158 (peptide)
peptide: YXEGTFISDYSIAXDRXAQXDFVNWLLAQSPSSG
modifications: N-terminal Me (Me-Tyr1); Aib at 2, 17, 20; Km = Lys(R) at 14, linker printed GS (read as G5 = GGGGG), lipid C15DA (C15 diacid); C-terminal OH

Target: T1, full-length human GIPR with an …
Assay: cell-based or functional assay

Binder | Human GIPR cAMP, HEK293T EC50 [nM]
[NMeY][Aib]EGTFISDYSIAK([AEEA-γGlu-γGlu-γGlu-C15 diacid])DR[Aib]AQ[Aib]NFVNWLLA[Aib]K-OH (not fully specified) [Compound 39] | 0.0005
[NMeY][Aib]EGTFISDYSIALDR[Aib]AQ[Aib]K([AEEA-γGlu-γGlu-γGlu-C15 diacid])FVNWLLA[Aib]K-OH (not fully specified) [Compound 45] | 0.0003
[NMeY][Aib]EGTFISDYSIALDRK([AEEA-AEEA-γGlu-C15 diacid])HQ[Aib]NFVNWLLAQRPSSGAPPPS-OH (also: Me-Tyr methyl position not given here) [Compound 47] | 0.0003
[NMeY][Aib]EGTFISDYSIALDR[Aib]K([AEEA-γGlu-γGlu-γGlu-C15 diacid])Q[Aib]NFVNWLLAQK (not fully specified (N-terminus)) [Compound 44] | 0.0004
B1 | 0.0003
[NMeY][Aib]EGTFISDYSIALDR[Aib]K([G2E3-C15 diacid])Q[Aib]NFVNWLLAQK-OH (not fully specified (N-terminus)) [Compound 42] | 0.0006
B2 | 0.0004
[NMeY][Aib]EGTFISDYSIALDR[Aib]AQ[Aib]K([AEEA-γGlu-γGlu-γGlu-C15 diacid])FVNWLL[Aib]QK-OH (not fully specified) [Compound 40] | 0.0008
[NMeY][Aib]EGTFTSDYSIYK([AEEA-AEEA-γGlu-C15 diacid])DR[Aib]AQ[Aib]NFVNWLLAQRPSSGAPPPS-OH (not fully specified) [Compound 46] | 0.0002

Target: full-length human GLP-1R with an N-terminal FLAG tag, overexpressed on HEK-293T cells (human, UniProt P43220 24-463)
Assay: cell-based or functional assay

Binder | Human GLP1R cAMP HEK293T EC50 [nM]
B3 | 9.77
B4 | 41.7
B5 | 89.1
B6 | 85.1
B7 | 145
B8 | 245
Me-Y[Aib]EGTFISDYSIALDR[Aib]K([AEEA-AEEA-γGlu-γGlu-C15 diacid])Q[Aib]NFVNWLLAQRG-OH [Compound 171] | > 1000
Me-Y[Aib]EGTFISDYSIALDR[Aib]KQ[Aib]DFVNWLLAQRG-OH (not fully specified (residues 1, 18)) [Compound 169] | > 1000

Target: T2, full-length human GIPR with an …
Assay: cell-based or functional assay

Binder | Human GIPR cAMP, HEK293T EC50 [nM]
B3 | 0.0002
B4 | 0.0004
B5 | 0.0004
B6 | 0.0004
B7 | 0.0002
B8 | 0.0002
Me-Y[Aib]EGTFISDYSIALDR[Aib]K([AEEA-AEEA-γGlu-γGlu-C15 diacid])Q[Aib]NFVNWLLAQRG-OH [Compound 171] | 0.0005
Me-Y[Aib]EGTFISDYSIALDR[Aib]KQ[Aib]DFVNWLLAQRG-OH (not fully specified (residues 1, 18)) [Compound 169] | 0.0006

Target: full-length human GLP-1R with an N-terminal FLAG tag (human, UniProt P43220 24-463)
Assay: cell-based or functional assay

Binder | Human GLP1R cAMP HEK293T EC50 [nM]
[NMeY][Aib]EGTFISDYSIAK([AEEA-γGlu-γGlu-γGlu-C15 diacid])DR[Aib]AQ[Aib]NFVNWLLA[Aib]K-OH (not fully specified) [Compound 39] | 398
[NMeY][Aib]EGTFISDYSIALDR[Aib]AQ[Aib]K([AEEA-γGlu-γGlu-γGlu-C15 diacid])FVNWLLA[Aib]K-OH (not fully specified) [Compound 45] | 48.4
[NMeY][Aib]EGTFISDYSIALDRK([AEEA-AEEA-γGlu-C15 diacid])HQ[Aib]NFVNWLLAQRPSSGAPPPS-OH (also: Me-Tyr methyl position not given here) [Compound 47] | 110
[NMeY][Aib]EGTFISDYSIALDR[Aib]K([AEEA-γGlu-γGlu-γGlu-C15 diacid])Q[Aib]NFVNWLLAQK (not fully specified (N-terminus)) [Compound 44] | 631
B1 | 174
[NMeY][Aib]EGTFISDYSIALDR[Aib]K([G2E3-C15 diacid])Q[Aib]NFVNWLLAQK-OH (not fully specified (N-terminus)) [Compound 42] | 237
B2 | 112
[NMeY][Aib]EGTFISDYSIALDR[Aib]AQ[Aib]K([AEEA-γGlu-γGlu-γGlu-C15 diacid])FVNWLL[Aib]QK-OH (not fully specified) [Compound 40] | 115
[NMeY][Aib]EGTFTSDYSIYK([AEEA-AEEA-γGlu-C15 diacid])DR[Aib]AQ[Aib]NFVNWLLAQRPSSGAPPPS-OH (not fully specified) [Compound 46] | 0.144
